Test results from patent publication US20240109974A1 (SHANDONG SIMCERE BIOPHARMACEUTICAL, published 2024).
Changes are numbered by the printed parent chain.

T1: human TNFR2 (Novoprotein, Cat #C830) (human, UniProt P20333 23-257, limits assumed)
T1 construct: construct not described; also called human TNFR2 protein
T1 sequence (looked up): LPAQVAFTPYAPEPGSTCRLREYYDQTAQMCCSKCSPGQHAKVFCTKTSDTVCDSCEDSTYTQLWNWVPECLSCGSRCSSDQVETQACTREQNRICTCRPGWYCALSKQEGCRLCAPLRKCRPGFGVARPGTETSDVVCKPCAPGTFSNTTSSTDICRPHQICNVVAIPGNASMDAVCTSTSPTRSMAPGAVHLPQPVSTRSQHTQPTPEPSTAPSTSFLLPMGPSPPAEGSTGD

T2: human TNFR2 on the surface of CHO-TNFR2 cells (human, UniProt P20333 23-461)
T2 construct: whole, on cells
T2 sequence (looked up): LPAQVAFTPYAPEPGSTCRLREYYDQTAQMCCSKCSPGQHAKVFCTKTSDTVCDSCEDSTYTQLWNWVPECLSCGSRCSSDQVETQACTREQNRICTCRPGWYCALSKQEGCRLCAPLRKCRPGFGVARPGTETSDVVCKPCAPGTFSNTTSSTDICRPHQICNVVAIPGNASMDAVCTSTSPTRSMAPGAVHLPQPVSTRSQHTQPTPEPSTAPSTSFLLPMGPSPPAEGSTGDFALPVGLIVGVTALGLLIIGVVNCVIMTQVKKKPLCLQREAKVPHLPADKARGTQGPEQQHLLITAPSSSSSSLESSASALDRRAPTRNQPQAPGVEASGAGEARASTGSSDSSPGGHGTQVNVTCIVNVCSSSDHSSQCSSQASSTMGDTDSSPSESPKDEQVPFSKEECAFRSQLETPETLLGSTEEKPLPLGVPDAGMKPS

B1: 224-Hu1 (antibody, V domains shown)
VH: QVQLVQSGAEVKKPGASVKVSCKASGFNNKDIYMHWVRQAPGQGLEWIGRIDPATGNTKHDPKFQDRVTMTSDTSTNTVYMELSSLRSEDTAVYYCARSPYGDFGAMDYWGQGTLVTVSS
VL: DIQMTQSPSSLSASVGDRVTITCTASSSVSSNYLHWYQQKPGKAPKLWIYSTSNLPSGVPSRFSGSGSGTDFTLTISSLQPEDFATYYCHQYHRSPWTFGQGTKVEIK
notes: Humanized form of #224; also called VH8 + VL6
B2: 224-Hu7 (antibody, V domains shown)
VH: QVQLVQSGSELKKPGASVKVSCKASGFNNKDIYMHWVRQAPGQGLEWMGRIDPATGNTKHDPKFQDKAVLSSDTSVSTAYLQISSLKAEDTAVYYCARSPYGDFGAMDYWGQGTLVTVSS
VL: B1 VL with W48L
notes: Humanized form of #224; also called VH9 + VL10
B3: 224-Hu3 (antibody, V domains shown)
VH: B2 VH
VL: B1 VL with W48L, P81A, F84A
notes: Humanized form of #224; also called VH9 + VL8
B4: 224-Hu6 (antibody, V domains shown)
VH: B1 VH
VL: B1 VL with K43S, A44S
notes: Humanized form of #224; also called VH8 + VL7
B5: 224-Hu4 (antibody, V domains shown)
VH: B2 VH
VL: B1 VL
notes: Humanized form of #224; also called VH9 + VL6
B6: 224-Hu5 (antibody, V domains shown)
VH: B2 VH
VL: B1 VL with W48L, F72Y, T73S
notes: Humanized form of #224; also called VH9 + VL9
B7: 224-Hu2 (antibody, V domains shown)
VH: B2 VH
VL: B1 VL with K43S, A44S
notes: Humanized form of #224; also called VH9 + VL7
B8: 219-Hu3 (antibody, V domains shown)
VH: QVQLVQSGAEVKKPGSSVKVSCKASGYSFTNYWMNWVRQAPGQGLEWMGMIHPSDTETRLNQNFKDRVTITADKSTSTAYMELSSLRSEDTAVYYCARGEGLGAARSVSMDYWGQGTLVTVSS
VL: DIQMTQSPSSLSASVGDRVTITCRASQDISNYLNWYQQKPDGTVKLLIYYTAILHSGVPSRFSGSGSGTDYSLTISSLQPEDFATYFCQQGNTLPWTFGQGTKVEIK
notes: also called VH5 + VL5
B9: 219-Hu4 (antibody, V domains shown)
VH: B8 VH with R38K, M48I, R67K, V68A, I70L, A72V
VL: B8 VL
notes: also called VH6 + VL5
B10: 219-Hu1 (antibody, V domains shown)
VH: B8 VH with S16A, G44R, A72R, K74T, T76A
VL: B8 VL
notes: also called VH3 + VL5
B11: 219-Hu5 (antibody, V domains shown)
VH: B8 VH with A72V
VL: B8 VL
notes: also called VH7 + VL5
B12: 219-Hu2 (antibody, V domains shown)
VH: B8 VH with R67K, V68A
VL: B8 VL
notes: also called VH4 + VL5
B13: 001-Hu5 (antibody, V domains shown)
VH: EVQLVESGGGLVQPGGSLRLSCAASGFAFSTYDLSWVRQAPGKGLEWVAYINNGGISTYYSDTVKGRFTISRDNAKNTLYLQMNSLRAEDTAVYYCVRGPFYGSANYFDYWGQGTLVTVSS
VL: DIQMTQSPSSLSASVGDRVTITCRTSESIYSNLPWYQQKPGKSPKLLVYDATKLAEGVPSRFSGSGSGTDYTLTISSLQPEDFATYYCQHFWVTPWTFGQGTKVEIK
notes: Humanized form of #001; also called VH1 + VL4
B14: 001-Hu3 (antibody, V domains shown)
VH: B13 VH
VL: B13 VL with S43A, V48I
notes: Humanized form of #001; also called VH1 + VL3
B15: 001-Hu2 (antibody, V domains shown)
VH: B13 VH with T78S
VL: B13 VL with V48I, Y71F
notes: Humanized form of #001; also called VH2 + VL2
B16: 001-Hu1 (antibody, V domains shown)
VH: B13 VH
VL: B13 VL with S43A, V48L
notes: Humanized form of #001; also called VH1 + VL1
B17: 001-Hu4 (antibody, V domains shown)
VH: B13 VH with T78S
VL: B13 VL
notes: Humanized form of #001; also called VH2 + VL4

Each binder was assayed against T1, human TNFR2 (Novoprotein, Cat #C830) (assay: competition ELISA, competitor human TNFα-Biotin; area under the OD curve).
Description: 1 μg/ml human TNFR2 (Novoprotein, Cat #C830) was pre-coated with 100 μl/well […] in an ELISA plate. All the test TNFR2 antibodies were subjected to 2.5-fold gradient dilution from the highest concentration of 30 μg/ml; the diluted antibodies were mixed with 15 ng/ml human TNFα-Biotin (Acro Biosystem, Cat #TNA-H82E3) in equal volume, respectively; the resulting mixture was added to the ELISA plate at 100 μl/well, and incubated with shaking at room temperature for 2.0 hours. The plate was washed, and then a Streptavidin-HRP working solution (diluted at 1:10000) was added at 100 μl/well, and the mixture was incubated with shaking at room temperature for 40 minutes. The plate was washed again, and then the substrate TMB of HRP was added to develop colour. A stop solution was added to stop the reaction, and then a microplate reader (MD 13) was used to read the absorbance value. The inhibitory curve of an antibody was drawn with antibody concentration as the abscissa and corresponding OD value as the ordinate, and fitted with four parameters (GraphPad Prism9) to calculate the IC50 value. The smaller the IC50 value, the stronger the ability of an antibody to inhibit the binding of human TNFα to human TNFR2. The blocking effect of a humanized antibody was normalized to its corresponding human-murine chimeric antibody WT. The higher the percentage value, the better the inhibitory effect of the humanized antibody.

| Binder | AUC |
| --- | --- |
| B1 | 7.12 |
| B2 | 7.44 |
| B3 | 6.34 |
| B4 | 6.46 |
| B5 | 6.25 |
| B6 | 6.87 |
| B7 | 7.18 |
| B8 | 8.16 |
| B9 | 7.66 |
| B10 | 7.92 |
| B11 | 7.96 |
| B12 | 7.82 |
| B13 | 8.02 |
| B14 | 7.87 |
| B15 | 8.1 |
| B16 | 7.63 |
| B17 | 7.86 |

The binders below were run against T2, human TNFR2 on the surface of CHO-TNFR2 … (assay: competition flow cytometry on CHO-TNFR2 cells, competitor TNFα-biotin; area under the MFI curve).
Parameters: unit not given beside the values
Description: CHO stable cells highly expressing human TNFR2 were used for the experiment (the same as CHO-TNFR2 in Example 4). The CHO-TNFR2 cells were digested, washed twice with DPBS, then stained with Live/Dead (L/D) (20 minutes at room temperature), and plated at a density of 1×10⁵ cells/50 μl/well. A test anti-TNFR2 antibody was diluted to 6 μg/ml with a staining buffer as the starting concentration: the antibody was subjected to 3.33-fold gradient dilution, with a total of 7 concentration points. The diluted antibody was added to the plated cells at 50 μl/well, and the mixture was mixed well by gentle pipetting, and incubated at 4° C. for 30 minutes. Then the diluted 100 ng/ml of human TNFα-biotin was added at 100 μl/well, and the mixture was mixed well by gentle pipetting, and then incubated at 4° C. for 30 minutes. The mixture was washed twice with a staining buffer, and then 0.12 μg/ml PE-streptavidin (BioLegend, Cat #405204) was added at 100 μl/well; the resulting mixture was incubated at 4° C. for 30 minutes. The mixture was washed twice with a staining buffer, and then 150 μl of staining buffer was added to resuspend the cells; signals were detected by a flow cytometer (Thermo Attune NxT). The inhibitory curve of an antibody was drawn with antibody concentration as the abscissa and corresponding MFI value as the ordinate, and fitted with four parameters (GraphPad Prism9) to calculate the IC50 value. The smaller the IC50 value, the stronger the ability of an antibody to inhibit the binding of human TNFα to human TNFR2. The blocking effect of a humanized antibody was normalized to its corresponding human-murine chimeric WT antibody. The higher the percentage value, the better the inhibitory effect of the humanized antibody.

| Binder | AUC |
| --- | --- |
| B1 | 20300 |
| B2 | 19600 |
| B3 | 18700 |
| B4 | 13900 |
| B5 | 14200 |
| B6 | 14600 |
| B7 | 19200 |
| B8 | 7590 |
| B9 | 7320 |
| B10 | 7320 |
| B11 | 7260 |
| B12 | 7340 |
| B13 | 10200 |
| B14 | 8810 |
| B15 | 9000 |
| B16 | 8840 |
| B17 | 10200 |
